Patent US7993884B2, “Beta-xylosidase for conversion of plant cell wall carbohydrates to simple sugars” (The United States of America as represented by the …, priority 2006, dated 2011)
“And” between values parts separate entries of the source, which are not always exact repeats. Equal entries are not always repeated. Where two headings read alike, the source gives them in different places.

How the values were obtained:
SXA [1] = biological target: T1, SXA (Selenomonas ruminantium, UniProt O52575)
SXA [2] = biological target: T1, SXA; remark: listed apart in the source
Description: Samples (25 μL) were injected onto the column equilibrated with 0.1 M NaOH and developed with a 5-min linear gradient (0.1 M NaOH to 33 mM sodium acetate) at ˜25° C. and a flow rate of 1 mL min^−1.
Samples were kept on wet ice or the HPLC autosampler at 5° C. until analyzed by HPLC. Initial rates, calculated from linear regressions of the [D-xylose] produced versus time, were fitted to Eq. 1 to determine steady-state kinetic parameters.

[3] = biological target: T2, enzyme from Bacillus pumilus (Bacillus pumilus, UniProt P07129); settings: pH 7, 25° C.; cited from earlier work
T2 sequence (P07129 1-535): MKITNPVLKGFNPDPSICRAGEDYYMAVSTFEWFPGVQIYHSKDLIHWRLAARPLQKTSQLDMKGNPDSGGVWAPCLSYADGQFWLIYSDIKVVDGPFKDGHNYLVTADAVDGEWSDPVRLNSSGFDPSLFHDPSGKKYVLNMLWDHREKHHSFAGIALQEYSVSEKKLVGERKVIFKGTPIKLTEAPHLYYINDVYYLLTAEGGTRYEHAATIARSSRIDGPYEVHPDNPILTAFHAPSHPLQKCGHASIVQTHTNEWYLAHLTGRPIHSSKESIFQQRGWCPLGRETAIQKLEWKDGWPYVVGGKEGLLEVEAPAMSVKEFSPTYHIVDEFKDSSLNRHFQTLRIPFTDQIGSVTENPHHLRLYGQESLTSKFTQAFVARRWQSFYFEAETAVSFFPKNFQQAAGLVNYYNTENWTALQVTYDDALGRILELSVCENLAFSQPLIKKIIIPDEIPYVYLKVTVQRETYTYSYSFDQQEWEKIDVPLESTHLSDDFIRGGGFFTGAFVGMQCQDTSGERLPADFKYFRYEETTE

SXA [4] = biological target: T1, SXA; assay: biochemical
Description: Concentrations of D-xylose produced versus time were fitted to lines for determination of initial rates. For determination of steady-state kinetic parameters, initial rates were fitted to Eq. 2 (competitive inhibition).

[5] = substrate: O=[N+]([O-])c1ccc(O[C@@H]2OC[C@@H](O)[C@H](O)[C@H]2O)cc1; assay: purified protein, by the assay type; assay type: biochemical, Selenomonas ruminantium GA192; settings: other: untreated control SXA, pH 7.0, 25° C
[6] = substrate: O=[N+]([O-])c1ccc(O[C@@H]2O[C@@H](CO)[C@H](O)[C@H]2O)cc1; assay: purified protein, by the assay type; assay type: biochemical, Selenomonas ruminantium GA192; settings: other: pH 5.3, 25° C
[7] = substrate: O=[N+]([O-])c1ccc(O[C@@H]2OC[C@@H](O)[C@H](O)[C@H]2O)cc1; assay: purified protein, by the assay type; assay type: biochemical, Selenomonas ruminantium GA192; settings: other: pH 5.3, 25° C
Description: Determination of Inhibition Constants

[8] = substrate: OC1OC[C@@H](O[C@@H]2OC[C@@H](O[C@@H]3OC[C@@H](O[C@@H]4OC[C@@H](O[C@@H]5OC[C@@H](O)[C@H](O)[C@H]5O)[C@H](O)[C@H]4O)[C@H](O)[C@H]3O)[C@H](O)[C@H]2O)[C@H](O)[C@H]1O; assay: purified protein, by the assay type; settings: other: 100 mM succinate-NaOH, pH 5.3, 25° C
[9] = substrate: OC[C@@H]1O[C@@H](OC[C@@H]2OC(O)[C@H](O)[C@H]2O)[C@H](O)[C@H]1O; assay: purified protein, by the assay type; settings: other: 100 mM succinate-NaOH, pH 5.3, 25° C, pH 5.3
Description: (§1) Samples (25 μL) were injected onto the column equilibrated with 0.1 M NaOH and developed with a 15-min linear gradient (0.1 M NaOH to 15 mM sodium acetate) at ˜25° C. and a flow rate of 1 mL min^−1.
(§2) Before (time=0 min) and after (time=1-6 min) initiating reactions with enzyme (7 μL), samples (0.05-0.1 mL) were removed and quenched with an equal volume of 0.5 M acetic acid and frozen. Following lyophilization, samples were dissolved in H2O and analyzed by HPLC. […] Results from two replicate reactions were combined to provide data points for the progress curves.
(§3) Before and after addition of enzyme (7 μL), 25-μl aliquots of the reaction mixtures were directly injected onto the HPLC column for quantification of product L-arabinose.
(§4) Quenched samples were analyzed by HPLC for D-xylose. Initial rates were determined from linear regressions of [D-xylose] produced versus reaction time. […] Four 1-mL replicate reactions were conducted to supply data points for the progress curves. Two parallel reactions were conducted, under the same conditions with the same reaction components, the absorbance at 400 nm was continuously monitored (20 min) for 4NP production, and the absorbance values were converted to mM 4NP concentrations by using a delta extinction coefficient (product-substrate) of 8.22 mM^−1 cm^−1.

[10] = substrate: OC1OC[C@@H](O[C@@H]2OC[C@@H](O[C@@H]3OC[C@@H](O[C@@H]4OC[C@@H](O)[C@H](O)[C@H]4O)[C@H](O)[C@H]3O)[C@H](O)[C@H]2O)[C@H](O)[C@H]1O; assay: purified protein, by the assay type; settings: other: 100 mM succinate-NaOH, pH 5.3, 25° C
[11] = substrate: OC1OC[C@@H](O[C@@H]2OC[C@@H](O)[C@H](O)[C@H]2O)[C@H](O)[C@H]1O; assay: purified protein, by the assay type; settings: other: 100 mM succinate-NaOH, pH 5.3, 25° C
[12] = substrate: OC1OC[C@@H](O[C@@H]2OC[C@@H](O[C@@H]3OC[C@@H](O[C@@H]4OC[C@@H](O[C@@H]5OC[C@@H](O[C@@H]6OC[C@@H](O)[C@H](O)[C@H]6O)[C@H](O)[C@H]5O)[C@H](O)[C@H]4O)[C@H](O)[C@H]3O)[C@H](O)[C@H]2O)[C@H](O)[C@H]1O; assay: purified protein, by the assay type; settings: for Km: other: 100 mM succinate-NaOH, pH 5.3, 25° C
[13] = substrate: OC1OC[C@@H](O[C@@H]2OC[C@@H](O[C@@H]3OC[C@@H](O)[C@H](O)[C@H]3O)[C@H](O)[C@H]2O)[C@H](O)[C@H]1O; assay: purified protein, by the assay type; settings: for Km: other: 100 mM succinate-NaOH, pH 5.3, 25° C
[14] = substrate: O=[N+]([O-])c1ccc(O[C@@H]2OC[C@@H](O)[C@H](O)[C@H]2O)cc1; assay: purified protein, by the assay type; settings: […]
Description: Kinetics with 4NP Substrates
(§5) Two methods were employed for determining initial rates. […] Initial rates were calculated from fitting the absorbance readings versus time to a line (minimum of 4 points per reaction progression) and by using an extinction coefficient of 17.4 mM^−1 cm^−1. In Method B (continuous monitoring), temperature-equilibrated reactions (1 mL) were monitored at 380 nm (for pH values below 6) or 400 nm (for pH values of 6 and above). Reactions were generally monitored 0.3 min for initial rate determinations. Delta extinction coefficients (product-substrate) used for molar conversion were determined by subtracting the absorbance of substrate (at pH 5 so even very minor contaminating 4NP would not contribute) from the absorbance of 4NP for each reaction condition. […] The concentration of 4NP substrates was determined by incubating the substrate with excess enzyme until an end point was reached, adding an aliquot (0.01 to 0.1 mL) to 0.1 M NaOH, recording the absorbance at 400 nm and using the extinction coefficient of 18.3 cm^−1mM^−1. Unless indicated otherwise, for both Methods A and B, reactions were initiated by adding a small aliquot of enzyme (generally 7 μl of enzyme diluted into 10 mM sodium phosphate, pH 7.0, and incubated on wet ice or at ˜25° C.) to the 1-mL, temperature-equilibrated (25° C.) reaction mixtures. For pH studies, buffers of constant ionic strength (I=0.3 M), adjusted with NaCl, were used as indicated: 100 mM succinate-NaOH (pH 4.3-6), 100 mM sodium phosphate (pH 6-8), 30 mM sodium pyrophosphate (pH 8-9), glycine-NaOH (pH 9) and glycylglycine-NaOH (pH 9).

[15] = substrate: O=[N+]([O-])c1ccc(O[C@@H]2OC[C@@H](O[C@@H]3OC[C@@H](O)[C@H](O)[C@H]3O)[C@H](O)[C@H]2O)cc1; assay: purified protein, by the assay type; settings: other: 100 mM sodium phosphate, pH 7.0, 25° C, first step (4NPX2 to 4NPX+D-xylose), not well determined, pH 7.0
Description: as §1, §2, §3, §4

[16] = substrate: O=[N+]([O-])c1ccc(O[C@@H]2O[C@@H](CO)[C@H](O)[C@H]2O)cc1; assay: purified protein, by the assay type
Description: Kinetics with 4NP Substrates
as §5

SXA [17] = biological target: T1, SXA; assay: pH stability of SXA and protection from low pH inactivation at pH 4.0 by monosaccharides
Description: Buffers of constant ionic strength (I=0.3 M), adjusted with NaCl, were used as indicated: 100 mM succinate-NaOH (pH 3.5-6), 100 mM sodium phosphate (pH 6-8), 30 mM sodium pyrophosphate (pH 8-9), and 100 mM glycine-NaOH (pH 9-10). […] Initial rates were determined by monitoring reactions continuously at 400 nM for 0.3 min. […] Relative activity remaining data were fitted to equation 3, which describes a first order decay: A is the relative activity remaining at varied times of preincubation, A0 is the relative activity remaining at time zero of the preincubation, kobs is the first order rate constant, and t is the time of preincubation. Apparent affinities for D-xylose and D-glucose were determined by fitting kobs values from the monosaccharide protection studies to equation 4 where kobs is the observed first order rate constant for the decay, k0 is the first order rate constant in the absence of ligand (e.g., D-xylose), I is the ligand concentration in the preincubation mixture, and Ki is the dissociation constant of ligand from the enzyme-ligand complex.

SXA [18] = biological target: T1, SXA; remark: listed apart in the source
Description: Initial rates were determined by monitoring reactions continuously at 400 nM for 0.3 min. […] Relative activity remaining data were fitted to equation 3, which describes a first order decay: A is the relative activity remaining at varied times of preincubation, A0 is the relative activity remaining at time zero of the preincubation, kobs is the first order rate constant, and t is the time of preincubation. Apparent affinities for D-xylose and D-glucose were determined by fitting kobs values from the monosaccharide protection studies to equation 4 where kobs is the observed first order rate constant for the decay, k0 is the first order rate constant in the absence of ligand (e.g., D-xylose), I is the ligand concentration in the preincubation mixture, and Ki is the dissociation constant of ligand from the enzyme-ligand complex.
Ligand protection studies contained varied concentrations of D-xylose or D-glucose in the pH 5.3 preincubation buffer at 55° C.

[19] = Isoelectric focusing of native SXA; assay type: physicochemical; settings: IEF pH 3-10 gel
[20] = same reaction conditions, pH 5.3, 25° C.
[21] = D-xylose α:β ratio 1:2.5 experiment
[22] = D-xylose α:β ratio 6:1 experiment
[23] = 4NP inhibition experiment, HPLC
[24] = other: pH 5.3, 25° C (Example 1), approximate, pH 5.3
[25] = other: 100 mM MES-NaOH, pH 6.00, 25° C, Method B, 50% sucrose, η/ηo 6.85, pH 6.0
[26] = other: 100 mM MES-NaOH, pH 6.00, 25° C, Method B, η/ηo 1.00, pH 6.0
[27] = other: 100 mM sodium phosphate, pH 7.0, 25° C, Method B, second step (4NPX to 4NP+D-xylose), pH 7.0

Molecule: OC1OC[C@@H](O[C@@H]2OC[C@@H](O)[C@H](O)[C@H]2O)[C@H](O)[C@H]1O (stereo partly drawn) [X2, 1,4-β-D-Xylobiose]
- Km (SXA [1]; 100 mM succinate-NaOH, pH 5.3, 25° C. (Example 1)): 4200 µM
- dissociation constant for the transition state (SXA [1]; assuming noncatalyzed rate similar to a-methylglucopyranoside): ~10^−19
- time of peak height of intermediate product, observed (SXA [1]; hydrolysis of X4, pH 5.30, 25° C.): 2940 s
- time of peak height of intermediate product, observed (SXA [1]; hydrolysis of X6, pH 5.30, 25° C.): 13384 s
- relative kcat values (SXA [1]; pH 5.3 and 25° C., relative to A2): 5600
- kcat, fold larger than with 4NPX (SXA [1]; [20]): 12 fold and 13 fold
- kcat/Km, fold larger than with 4NPX (SXA [1]; [20]): 2 fold
- pH-independent kcat (SXA [2]): 172±2
- Km (SXA [2]; 100 mM succinate-NaOH, pH 5.3, 25° C., improved quench (Example 3)): 2060 ± 80 µM
- pKa of kcat versus pH (single group) (SXA [2]; Eq. 5, I=0.3 M, 25° C.): 7.57±0.03
- pKa1 of kcat/Km versus pH (SXA [2]; Eq. 6, I=0.3 M, 25° C.): 4.86±0.06
- pKa2 of kcat/Km versus pH (SXA [2]; Eq. 6, I=0.3 M, 25° C.): 7.01±0.05
- pKa1 of 1/Km versus pH (SXA [2]; Eq. 7, I=0.3 M, 25° C.): 4.78±0.11
- pKa2 of 1/Km versus pH (SXA [2]; Eq. 7, I=0.3 M, 25° C.): 7.03±0.17
- factor by which kcat of SXA is higher than that of the Bacillus pumilus enzyme (SXA [2]; SXA pH 5.3, 25° C. vs B. pumilus pH 7.15, 25° C.): 10
- lower affinity of dianionic SXA (D14^−E186^−) than monoanionic SXA (D14^−E186^H) (SXA [2]; from pH dependencies of 1/Km): 2.9 fold and 3 fold
- pH-independent kcat/Km (SXA [2]; kcat/Km versus pH, Eq. 6, I=0.3 M, 25° C. (FIG. 19)): 123±5
- kcat lower than previous determination (Example 1) (SXA [2]; pH 5.3, 25° C.): 55%
- kcat/Km lower than previous determination (Example 1) (SXA [2]; pH 5.3, 25° C.): 9%
- kcat, Bacillus pumilus enzyme [3]: 18 s⁻¹

Molecule: O=[N+]([O-])c1ccc(O)cc1 [4NP, 4-nitrophenol]
- Ki (SXA [4]): 6.28 ± 0.55 mM

B1: Selenomonas ruminantium GA192 β-D-xylosidase (SXA), wild type, SEQ ID NO: 2 (Pseudoselenomonas ruminantium) (protein)
chain: MNIQNPVLKGFNPDPSIVRAGDDYYIATSTFEWFPGVQIHHSKDLVHWHLVAHPLSTTEFLDMKGNPDSGGIWAPDLSYADGKFWLIYTDVKVVDGMWKDCHNYLTTAEDIKGPWSKPILLNGAGFDASLFHDPSGKKYLVNMYWDQRVYHHNFYGIALQEYSVAEEKLIGKPEIIYKGTDIAYTEGPHLYYINDMYYLMTAEGGTTYQHSETIARSKTIHGPYEIQPDYPLLSAWKEVHNPLQKCGHASLVETQNGQWYLAHLTGRPLPAPAGFPSREREQHAFCPLGRETAIQKIEWQDGWPVVVGGQQGSLEVEAPDLPQQEWAPTYEERDDFDKDTLNINFQTLRIPFSEHLGSLTARPGFLRLYGRESLQSKFTQAHIARRWQSFNFDAGTSVEFSPNSFQQMAGLTCYYNTENWSSIHVTWNEEKGRIIDLVTADNGTFSMPLAGAEIPIPDEVKTVHFKVSVRGRIYQYAYSFDGETFHTLPIELPSWKLSDDYVRGGGFFTGAFVGINAIDITGTALPADFDYFTYKELD
- Km [5]: 380 ± 5 µM
- kcat [5]: 12.2 ± 0.05 s⁻¹
- Km [6, 21]: 900 ± 13 µM
- kcat [6, 21]: 2.79 ± 0.01 s⁻¹
- Km [6, 22]: 880 ± 130 µM
- kcat [6, 22]: 2.78 ± 0.01 s⁻¹
- Km [7, 23]: 758 ± 59 µM
- kcat [7, 23]: 26.7 ± 1.1 s⁻¹
- Km ([7]; D-xylose inhibition experiment): 716 ± 32 µM
- kcat ([7]; D-xylose inhibition experiment): 32.1 ± 0.5 s⁻¹
- Km [8]: 2860 ± 380 µM
- Km ([8]; pH 5.3): 3700 ± 600 µM
- Km [9]: 1200 ± 100 µM
- Km [10]: 2750 ± 230 µM
- Km ([10]; pH 5.3): 4000 ± 300 µM
- Km [11]: 2060 ± 80 µM
- Km ([11]; pH 5.3): 4200 ± 500 µM
- Km [12]: 3120 ± 210 µM
- Km ([12]; pH 5.3): 2700 ± 500 µM
- kcat [12, 24]: 100 s⁻¹
- Km [13]: 2120 ± 100 µM
- Km ([13]; pH 5.3): 3800 ± 600 µM
- kcat [13, 24]: 170 s⁻¹
- Km [14, 25]: 637 ± 81 µM
- Km [14, 26]: 699 ± 35 µM
- Km [14, 27]: 443 ± 8 µM
- kcat [14, 27]: 16.2 ± 0.09 s⁻¹
- Km ([14]; other: pH 5.3, 25° C, Method A, 50% sucrose, η/ηo 6.12, pH 5.3): 690 ± 35 µM
- Km [15]: 690 ± 430 µM
- kcat [15]: 50.5 ± 25.7 s⁻¹
- Km [16, 25]: 754 ± 101 µM
- Km [16, 26]: 745 ± 36 µM
- Km ([16]; other: 100 mM succinate-NaOH, pH 5.3, 25° C, Method A, no sucrose, pH 5.3): 810 ± 50 µM
- kcat ([16]; other: pH profile, I=0.3 M, Method B): 3.25 ± 0.05 s⁻¹

B2: SXA: β-D-xylosidase (E.C. 3.2.1.37) of Selenomonas ruminantium GA192, glycoside hydrolase family 43, GenBank AAB97967, SEQ. ID No. 2 (protein)
chain: B1 chain
modifications: selenomonas ruminantium
- pH below which SXA is unstable (SXA [17]): below 4.1
- kobs, first-order inactivation rate constant of SXA (SXA [17]; pH 4.0, 25° C., absence of monosaccharide (0 mM)): 0.0784 ± 0.0023 min⁻¹ and 0.0518 ± 0.0037 min⁻¹
- temperature up to which the enzyme is stable (SXA [18]): up to 55 °C
- kobs, first-order inactivation rate constant of SXA (SXA [18]; pH 5.3, 55° C., absence of monosaccharide (0 mM)): 0.0252 ± 0.0020 min⁻¹ and 0.0256 ± 0.0015 min⁻¹
- isoelectric point [19]: approximately 4.4
